Reference: patent US11402384B2 (Duke University, priority 2015, dated 2022)
“Also recorded” adds a separate entry of the source.

Experiment: Ratiometric fluorescence glucose titration of fluorescent conjugates
Format: binding
Parameters: key to Shape (fluorescence response to glucose) / Change (fluorescence response to glucose): m, monochromatic; d, dichromatic (i.e. spectral shape change); 0, no change
Conditions: for fluorescence response to glucose: monochromatic or dichromatic emission change
Excerpt: Semi-synthetic FRSs can be engineered by site-specifically attaching thiol-reactive, environmentally sensitive fluorophores that respond to ligand-mediated conformational changes. Identification of FRS candidates that can be used for sensing applications comprises three steps: • 1. Cysteine scan. Mutant glucose-binding proteins containing single cysteines are constructed for site-specific attachment of thiol-reactive fluorophores. […] Candidate positions fall into three classes: endosteric, replacing a residue that contacts the ligand directly; peristeric, located at the rim of the binding site; allosteric (Marvin et al., 1997, Proc Natl Acad Sci USA, 94, 4366-71; Marvin, 1998, J Am Chem Soc, 120, 7-11), located outside the binding site at sites that undergo local structural changes in concert with the hinge-bending motion. • 2. Fluorophore screening. Thiol-reactive, environmentally sensitive fluorophores are attached to each cysteine mutant prepared in step 1. • 3. Evaluation of the glucose-mediated change of all the fluorescent conjugates prepared in step 2. Responses to ligand binding in which there is both a change in fluorescence emission intensity and spectral shape are essential for chemometric applications, because such changes enable ratiometric measurements. Changes in spectral shape typically are accompanied by a shift in the wavelength of the emission intensity maxima. Three classes of fluorescent responses are possible: • i. No response. • ii. Monochromatic response (emission intensity increases or decreases without a change in spectral shape) • iii.
Determination of temperature- and ligand-dependent fluorescence landscapes. […] Temperatures were advanced in 1K steps.
Determination of emission intensity spectra.
2 For a single glucose-binding site, the fractional saturation is given by […]

[1] = tsGBP2 cysteine scan, Acrylodan conjugate
[2] = ttGBP1 homologs, 13C-equivalent mutants labeled with Acrylodan or Badan
[3] = tsGBP2 cysteine scan, Badan conjugate

B1: E13C Acrylodan: tsGBP2_C13 (SEQ ID NO: 20) Acrylodan conjugate (conjugate)
chain: MKLEIFSWWAGDCGPALEALIRLYKQKYPGVEVINATVTGGAGVNAKAVLKTRMLGGDPPDTFQVHAGQELIGTWVVADRMEDLTSLFRQEGWLQAFPKGLIDLLSYKGGIWSVPVNIHRSNVMWYIPAKLKEWGVTPPKTWAEFLATAQTLKRKGLEAPLALGENWTQQHLWESVALATLGADGWNNLWSGKLKFTDPKAVAVWETFGKVLDAANKDAAGLSWQQAVDRVVQGKAAFNIMGDWAAGYMSTTLKLKPGTDFAWTPSPGTSGIFMMLSDSFGLPKGAKNRQNAINWLKLVGSKEGQDTFNPLKGSIAARLDSDPAKYNAYGQSAMKDWKSNRIVGSLVHGAVAPESFMSQFGTVMEIFLQSRNPQAAANAAQAIANQVGLGRGGSHHHHHH
modifications: Acrylodan conjugate; tsGBP2_C13 (13C substitution mutant with signal peptide replaced with M and a GGSHHHHHH at C-terminus)
fluorescence response to glucose (listed as 13C.Acrylodan conjugate): strong dichromatic response; also recorded: strongest dichromatic response
fluorescence response to glucose (listed as Acrylodan conjugate attached to E13C): largest, wavelength-dependent changes in fluorescence emission intensities
Shape (fluorescence response to glucose) [1]: d
Shape (fluorescence response to glucose) [2]: d

B2: G41C Acrylodan: tsGBP2_C41 (SEQ ID NO: 21) Acrylodan conjugate (conjugate)
chain: MKLEIFSWWAGDEGPALEALIRLYKQKYPGVEVINATVTGCAGVNAKAVLKTRMLGGDPPDTFQVHAGQELIGTWVVADRMEDLTSLFRQEGWLQAFPKGLIDLLSYKGGIWSVPVNIHRSNVMWYIPAKLKEWGVTPPKTWAEFLATAQTLKRKGLEAPLALGENWTQQHLWESVALATLGADGWNNLWSGKLKFTDPKAVAVWETFGKVLDAANKDAAGLSWQQAVDRVVQGKAAFNIMGDWAAGYMSTTLKLKPGTDFAWTPSPGTSGIFMMLSDSFGLPKGAKNRQNAINWLKLVGSKEGQDTFNPLKGSIAARLDSDPAKYNAYGQSAMKDWKSNRIVGSLVHGAVAPESFMSQFGTVMEIFLQSRNPQAAANAAQAIANQVGLGRGGSHHHHHH
modifications: Acrylodan conjugate; tsGBP2_C41 (41C substitution mutant with signal peptide replaced with M and a GGSHHHHHH at C-terminus)
Shape (fluorescence response to glucose) [1]: d

B3: E13C Badan: tsGBP2_C13 (SEQ ID NO: 20) Badan conjugate (conjugate)
chain: MKLEIFSWWAGDCGPALEALIRLYKQKYPGVEVINATVTGGAGVNAKAVLKTRMLGGDPPDTFQVHAGQELIGTWVVADRMEDLTSLFRQEGWLQAFPKGLIDLLSYKGGIWSVPVNIHRSNVMWYIPAKLKEWGVTPPKTWAEFLATAQTLKRKGLEAPLALGENWTQQHLWESVALATLGADGWNNLWSGKLKFTDPKAVAVWETFGKVLDAANKDAAGLSWQQAVDRVVQGKAAFNIMGDWAAGYMSTTLKLKPGTDFAWTPSPGTSGIFMMLSDSFGLPKGAKNRQNAINWLKLVGSKEGQDTFNPLKGSIAARLDSDPAKYNAYGQSAMKDWKSNRIVGSLVHGAVAPESFMSQFGTVMEIFLQSRNPQAAANAAQAIANQVGLGRGGSHHHHHH
modifications: Badan conjugate; tsGBP2_C13 (13C substitution mutant with signal peptide replaced with M and a GGSHHHHHH at C-terminus)
Shape (fluorescence response to glucose) [3]: m
Change (fluorescence response to glucose) (tsGBP 13C affinity mutants, Acrylodan or Badan conjugates): m/d
Shape (fluorescence response to glucose) [2]: m

B4: D12C Badan: tsGBP2_C12 (SEQ ID NO: 19) Badan conjugate (conjugate)
chain: MKLEIFSWWAGCEGPALEALIRLYKQKYPGVEVINATVTGGAGVNAKAVLKTRMLGGDPPDTFQVHAGQELIGTWVVADRMEDLTSLFRQEGWLQAFPKGLIDLLSYKGGIWSVPVNIHRSNVMWYIPAKLKEWGVTPPKTWAEFLATAQTLKRKGLEAPLALGENWTQQHLWESVALATLGADGWNNLWSGKLKFTDPKAVAVWETFGKVLDAANKDAAGLSWQQAVDRVVQGKAAFNIMGDWAAGYMSTTLKLKPGTDFAWTPSPGTSGIFMMLSDSFGLPKGAKNRQNAINWLKLVGSKEGQDTFNPLKGSIAARLDSDPAKYNAYGQSAMKDWKSNRIVGSLVHGAVAPESFMSQFGTVMEIFLQSRNPQAAANAAQAIANQVGLGRGGSHHHHHH
modifications: Badan conjugate; tsGBP2_C12 (12C substitution mutant with signal peptide replaced with M and a GGSHHHHHH at C-terminus)
Shape (fluorescence response to glucose) [3]: m

B5: W244C Acrylodan: tsGBP2_C244 (SEQ ID NO: 30) Acrylodan conjugate (conjugate)
chain: MKLEIFSWWAGDEGPALEALIRLYKQKYPGVEVINATVTGGAGVNAKAVLKTRMLGGDPPDTFQVHAGQELIGTWVVADRMEDLTSLFRQEGWLQAFPKGLIDLLSYKGGIWSVPVNIHRSNVMWYIPAKLKEWGVTPPKTWAEFLATAQTLKRKGLEAPLALGENWTQQHLWESVALATLGADGWNNLWSGKLKFTDPKAVAVWETFGKVLDAANKDAAGLSWQQAVDRVVQGKAAFNIMGDCAAGYMSTTLKLKPGTDFAWTPSPGTSGIFMMLSDSFGLPKGAKNRQNAINWLKLVGSKEGQDTFNPLKGSIAARLDSDPAKYNAYGQSAMKDWKSNRIVGSLVHGAVAPESFMSQFGTVMEIFLQSRNPQAAANAAQAIANQVGLGRGGSHHHHHH
modifications: Acrylodan conjugate; tsGBP2_C244 (244C substitution mutant with signal peptide replaced with M and a GGSHHHHHH at C-terminus)
fluorescence response to glucose: strong monochromatic response
Shape (fluorescence response to glucose) [1]: m

B6: D12C Acrylodan: tsGBP2_C12 (SEQ ID NO: 19) Acrylodan conjugate (conjugate)
chain: MKLEIFSWWAGCEGPALEALIRLYKQKYPGVEVINATVTGGAGVNAKAVLKTRMLGGDPPDTFQVHAGQELIGTWVVADRMEDLTSLFRQEGWLQAFPKGLIDLLSYKGGIWSVPVNIHRSNVMWYIPAKLKEWGVTPPKTWAEFLATAQTLKRKGLEAPLALGENWTQQHLWESVALATLGADGWNNLWSGKLKFTDPKAVAVWETFGKVLDAANKDAAGLSWQQAVDRVVQGKAAFNIMGDWAAGYMSTTLKLKPGTDFAWTPSPGTSGIFMMLSDSFGLPKGAKNRQNAINWLKLVGSKEGQDTFNPLKGSIAARLDSDPAKYNAYGQSAMKDWKSNRIVGSLVHGAVAPESFMSQFGTVMEIFLQSRNPQAAANAAQAIANQVGLGRGGSHHHHHH
modifications: Acrylodan conjugate; tsGBP2_C12 (12C substitution mutant with signal peptide replaced with M and a GGSHHHHHH at C-terminus)
Shape (fluorescence response to glucose) [1]: m
